The results in this text go back to patent US20240425885.

Assay in all cases: cleavage_in_vitro
Series [1] concerns T1, OMNI-137 (metagenomic, unknown).
T1 sequence: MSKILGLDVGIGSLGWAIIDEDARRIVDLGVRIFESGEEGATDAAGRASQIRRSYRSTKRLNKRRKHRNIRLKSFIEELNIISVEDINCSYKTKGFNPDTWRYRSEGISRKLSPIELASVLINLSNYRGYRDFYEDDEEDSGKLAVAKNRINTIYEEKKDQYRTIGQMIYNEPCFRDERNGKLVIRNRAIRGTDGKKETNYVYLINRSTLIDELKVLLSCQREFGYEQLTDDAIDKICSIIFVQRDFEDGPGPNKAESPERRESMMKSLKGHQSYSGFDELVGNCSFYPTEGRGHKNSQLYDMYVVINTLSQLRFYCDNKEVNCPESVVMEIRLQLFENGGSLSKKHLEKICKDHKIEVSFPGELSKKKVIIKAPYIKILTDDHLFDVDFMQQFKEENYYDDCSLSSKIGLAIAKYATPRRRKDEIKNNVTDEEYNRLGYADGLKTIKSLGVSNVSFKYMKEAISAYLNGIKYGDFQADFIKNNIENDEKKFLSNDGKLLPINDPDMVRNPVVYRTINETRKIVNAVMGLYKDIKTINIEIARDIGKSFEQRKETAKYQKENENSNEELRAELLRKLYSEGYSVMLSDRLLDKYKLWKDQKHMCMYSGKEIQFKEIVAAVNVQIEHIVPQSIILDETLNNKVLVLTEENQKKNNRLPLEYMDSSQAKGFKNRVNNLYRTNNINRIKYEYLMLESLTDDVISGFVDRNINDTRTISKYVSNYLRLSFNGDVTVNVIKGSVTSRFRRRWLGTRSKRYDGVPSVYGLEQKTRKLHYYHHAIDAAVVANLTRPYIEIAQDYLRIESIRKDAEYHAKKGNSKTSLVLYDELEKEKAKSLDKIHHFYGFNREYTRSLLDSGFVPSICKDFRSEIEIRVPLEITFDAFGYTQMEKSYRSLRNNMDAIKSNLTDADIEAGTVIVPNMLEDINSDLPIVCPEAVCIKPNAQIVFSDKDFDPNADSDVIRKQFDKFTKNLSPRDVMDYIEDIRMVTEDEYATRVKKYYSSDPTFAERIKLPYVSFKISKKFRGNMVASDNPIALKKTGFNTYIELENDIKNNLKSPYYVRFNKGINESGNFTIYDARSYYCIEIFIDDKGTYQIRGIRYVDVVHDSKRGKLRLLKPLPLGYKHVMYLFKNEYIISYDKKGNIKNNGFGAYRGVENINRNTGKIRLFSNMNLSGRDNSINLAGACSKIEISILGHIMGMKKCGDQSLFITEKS
Conditions: TXTL; PAM NNRCRGNN

In series [2] the test system is T2, OMNI-92 (metagenomic, unknown).
T2 sequence: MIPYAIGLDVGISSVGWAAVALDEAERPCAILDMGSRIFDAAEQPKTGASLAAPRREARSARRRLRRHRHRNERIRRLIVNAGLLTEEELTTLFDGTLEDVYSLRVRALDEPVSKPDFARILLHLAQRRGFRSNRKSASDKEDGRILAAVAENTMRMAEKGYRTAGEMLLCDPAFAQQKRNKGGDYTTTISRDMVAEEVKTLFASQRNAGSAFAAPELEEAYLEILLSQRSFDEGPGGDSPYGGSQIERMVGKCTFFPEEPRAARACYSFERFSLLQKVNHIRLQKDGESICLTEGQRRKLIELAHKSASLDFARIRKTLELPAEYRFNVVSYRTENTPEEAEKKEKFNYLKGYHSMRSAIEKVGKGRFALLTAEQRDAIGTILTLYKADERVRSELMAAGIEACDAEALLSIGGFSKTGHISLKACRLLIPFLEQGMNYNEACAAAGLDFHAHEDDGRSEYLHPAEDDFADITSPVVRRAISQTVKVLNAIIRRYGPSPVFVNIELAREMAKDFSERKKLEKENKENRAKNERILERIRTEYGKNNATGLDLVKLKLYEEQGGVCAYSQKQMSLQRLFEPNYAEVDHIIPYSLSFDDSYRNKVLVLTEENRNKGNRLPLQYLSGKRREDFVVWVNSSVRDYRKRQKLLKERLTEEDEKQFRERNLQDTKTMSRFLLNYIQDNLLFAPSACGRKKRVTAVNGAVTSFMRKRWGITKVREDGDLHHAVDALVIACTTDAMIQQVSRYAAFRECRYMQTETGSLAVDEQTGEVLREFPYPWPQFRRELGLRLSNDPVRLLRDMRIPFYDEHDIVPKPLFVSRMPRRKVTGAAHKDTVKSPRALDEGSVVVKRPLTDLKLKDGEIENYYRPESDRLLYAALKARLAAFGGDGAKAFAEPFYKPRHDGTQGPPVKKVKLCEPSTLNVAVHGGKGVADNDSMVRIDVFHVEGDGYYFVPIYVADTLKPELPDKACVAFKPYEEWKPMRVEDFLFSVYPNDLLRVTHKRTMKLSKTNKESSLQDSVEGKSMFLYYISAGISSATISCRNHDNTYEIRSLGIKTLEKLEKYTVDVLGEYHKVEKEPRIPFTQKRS
The following applies: TXTL; PAM NNNNRYGA

The test system of series [3] is T3, OMNI-136 (metagenomic, unknown).
T3 sequence: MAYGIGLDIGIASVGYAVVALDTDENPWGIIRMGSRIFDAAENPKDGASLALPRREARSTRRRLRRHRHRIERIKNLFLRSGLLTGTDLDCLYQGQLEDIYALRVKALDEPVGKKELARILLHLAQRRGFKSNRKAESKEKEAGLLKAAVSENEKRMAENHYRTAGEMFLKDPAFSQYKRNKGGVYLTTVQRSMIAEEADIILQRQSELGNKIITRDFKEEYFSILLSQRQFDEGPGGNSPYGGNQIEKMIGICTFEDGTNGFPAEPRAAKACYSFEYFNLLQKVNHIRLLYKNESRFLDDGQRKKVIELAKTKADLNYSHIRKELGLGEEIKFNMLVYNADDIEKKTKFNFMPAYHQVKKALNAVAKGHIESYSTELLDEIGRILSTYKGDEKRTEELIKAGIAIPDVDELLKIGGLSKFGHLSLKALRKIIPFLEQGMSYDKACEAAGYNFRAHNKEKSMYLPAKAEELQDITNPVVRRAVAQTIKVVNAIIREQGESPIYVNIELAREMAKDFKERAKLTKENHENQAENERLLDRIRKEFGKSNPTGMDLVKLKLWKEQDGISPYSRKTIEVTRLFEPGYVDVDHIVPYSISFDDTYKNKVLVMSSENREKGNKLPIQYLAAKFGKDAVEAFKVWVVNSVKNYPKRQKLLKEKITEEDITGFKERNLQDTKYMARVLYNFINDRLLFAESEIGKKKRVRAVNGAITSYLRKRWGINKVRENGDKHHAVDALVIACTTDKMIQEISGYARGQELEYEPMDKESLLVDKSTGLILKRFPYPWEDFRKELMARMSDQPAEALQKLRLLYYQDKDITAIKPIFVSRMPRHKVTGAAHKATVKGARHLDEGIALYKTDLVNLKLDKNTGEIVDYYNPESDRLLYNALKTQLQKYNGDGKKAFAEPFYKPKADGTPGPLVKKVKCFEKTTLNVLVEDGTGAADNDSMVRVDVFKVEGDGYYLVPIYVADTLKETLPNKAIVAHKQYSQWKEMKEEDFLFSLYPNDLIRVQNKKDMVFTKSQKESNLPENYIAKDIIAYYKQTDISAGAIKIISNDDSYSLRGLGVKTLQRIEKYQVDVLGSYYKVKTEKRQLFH
The following applies: TXTL; PAM NNDRCNAA

The subject of series [4] is T4, OMNI-135 (metagenomic, unknown).
T4 sequence: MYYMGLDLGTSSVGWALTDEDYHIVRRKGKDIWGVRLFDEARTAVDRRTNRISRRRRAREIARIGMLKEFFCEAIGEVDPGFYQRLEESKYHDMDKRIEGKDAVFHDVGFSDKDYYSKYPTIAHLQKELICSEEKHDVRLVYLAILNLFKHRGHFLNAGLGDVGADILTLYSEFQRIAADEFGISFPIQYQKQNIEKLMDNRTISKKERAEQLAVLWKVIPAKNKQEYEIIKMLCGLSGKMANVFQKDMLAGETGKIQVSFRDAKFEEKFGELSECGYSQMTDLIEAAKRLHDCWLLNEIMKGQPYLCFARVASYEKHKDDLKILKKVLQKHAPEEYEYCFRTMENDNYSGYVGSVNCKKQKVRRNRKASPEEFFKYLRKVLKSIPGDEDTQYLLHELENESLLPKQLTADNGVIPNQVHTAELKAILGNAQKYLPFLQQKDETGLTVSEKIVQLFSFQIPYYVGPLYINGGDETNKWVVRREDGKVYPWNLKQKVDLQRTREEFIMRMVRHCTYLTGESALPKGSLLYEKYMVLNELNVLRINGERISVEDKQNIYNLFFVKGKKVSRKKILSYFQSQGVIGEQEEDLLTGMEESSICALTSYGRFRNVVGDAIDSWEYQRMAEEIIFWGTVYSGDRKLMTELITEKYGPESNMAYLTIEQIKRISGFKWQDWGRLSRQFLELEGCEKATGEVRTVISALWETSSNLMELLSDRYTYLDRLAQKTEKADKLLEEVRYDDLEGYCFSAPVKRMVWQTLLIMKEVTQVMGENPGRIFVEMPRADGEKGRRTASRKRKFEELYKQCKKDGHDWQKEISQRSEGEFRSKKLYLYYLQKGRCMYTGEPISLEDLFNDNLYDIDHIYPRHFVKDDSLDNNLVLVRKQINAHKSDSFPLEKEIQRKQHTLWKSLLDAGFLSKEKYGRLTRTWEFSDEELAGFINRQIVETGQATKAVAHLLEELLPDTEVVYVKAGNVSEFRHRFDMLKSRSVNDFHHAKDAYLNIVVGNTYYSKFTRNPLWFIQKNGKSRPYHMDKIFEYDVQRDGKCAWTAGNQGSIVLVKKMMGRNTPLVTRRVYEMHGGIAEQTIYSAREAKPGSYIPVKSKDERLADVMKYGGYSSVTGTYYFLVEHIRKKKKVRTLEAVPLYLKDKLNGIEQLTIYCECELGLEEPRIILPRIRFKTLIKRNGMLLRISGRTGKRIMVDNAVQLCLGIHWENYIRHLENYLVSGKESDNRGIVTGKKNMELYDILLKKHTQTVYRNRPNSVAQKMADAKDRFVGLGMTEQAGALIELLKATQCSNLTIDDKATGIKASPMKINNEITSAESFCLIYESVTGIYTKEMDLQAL
Conditions: TXTL; PAM NNWACCNN

Regarding “GGAAGAGCAGAGCCUUGGUCUCGUUUUAGUUCUCGGACGAAAGUCCGAGAAUCUAAGAUAAAGCUAUAUGCUGUGGGGUUGCGUAUCCCCUUAUCGAACGUACUAAGAUGAGUUUCGGCUCAUCUUUUUU / GGAAGAGCAGAGCCTTGGTCTCNNNNNNNN / NNNNNNNNGAGACCAAGGCTCTGCTCTTCC [T2 sgRNA 37 V1 ; T2 protospacer + 8N PAM library (pbPOS T2)]”, the activity (1-depletion score) in series [1] is 0.97. On to “GGAAGAGCAGAGCCUUGGUCUCGUUGUAGUUCCCUGAUCGUGAAAACGAUCAGGUUGCUACAAUAAGGUAGUACACCGAAGAGCUCUAACGCCCCGUUUUGCGGGGCGUUAUCUCUUUUUUU / GGAAGAGCAGAGCCTTGGTCTCNNNNNNNN / NNNNNNNNGAGACCAAGGCTCTGCTCTTCC [T2 sgRNA 3 V1 ; T2 protospacer + 8N PAM library (pbPOS T2)]”, for which the activity (1-depletion score) in series [2] worked out at 0.97. In series [3], “GGAAGAGCAGAGCCUUGGUCUCGUUGUAGUUCCCUGUUAAUGAAAAUUUUCGGGUUACUAUGAUAAGGUAGAACACCGAAAAGCUCUAACGCCUUGCCAUUUGGUGAGGCGUUAUCUUUUUU / GGAAGAGCAGAGCCTTGGTCTCNNNNNNNN / NNNNNNNNGAGACCAAGGCTCTGCTCTTCC [T2 sgRNA 36 V1 ; T2 protospacer + 8N PAM library (pbPOS T2)]” gave an activity (1-depletion score) of 0.97.

In series [4], “GGAAGAGCAGAGCCUUGGUCUCGUUUGAGAACCUUGUAAGAAAUUACAAGGUGAGUGCAAAUAAGGAUUUUUCCGAAAUCACUCCUCAUGGAUGUCCGCAUUGUGCGGUGAAAAAGACUCUGUUUAGAGUCUUUUUU / GGAAGAGCAGAGCCTTGGTCTCNNNNNNNN / NNNNNNNNGAGACCAAGGCTCTGCTCTTCC [T2 sgRNA 35 V1 ; T2 protospacer + 8N PAM library (pbPOS T2)]” came in with an activity (1-depletion score) of 0.95.
